{"source": "paper PMC3416805", "molecular_target": "endogenous ASR1 from tomato fruit nuclei (tomato (endogenous in tomato fruit)) (UniProt Q08655)", "assay": "cross-linking; formaldehyde crosslinking of ground tomato fruit pericarp, nuclei purified, nuclear proteins passed over a Ni2+ column, SDS-PAGE and immunoblot with anti-ASR1 antiserum", "note": "“And” between values parts separate entries of the source, which are not always exact repeats. Identical values can stand only once.", "data": [{"substance": "endogenous ASR1 from tomato fruit nuclei (from UniProt Q08655 1-115) (natural protein)", "values": [{"measurement": "percent of nuclear ASR1 in a monomeric form", "result": "> 90", "unit": "%"}, {"measurement": "stoichiometry N", "result": "2 and 3"}]}]}
